Broadly, the IC50 is the concentration needed to halve the response being measured. The low end stands for greater potency in that assay, the high end for weaker potency in that assay. One may read the % Inhibition as the drop in the measured response relative to a control, in per cent. Low readings indicate little suppression, high ones strong suppression.

Changes are numbered by the printed parent chain.

Assay [1] deals with T1, LAG3 on cells (recombinant CHO cells expressing Lag3) (human, UniProt P18627 29-525).
T1 sequence: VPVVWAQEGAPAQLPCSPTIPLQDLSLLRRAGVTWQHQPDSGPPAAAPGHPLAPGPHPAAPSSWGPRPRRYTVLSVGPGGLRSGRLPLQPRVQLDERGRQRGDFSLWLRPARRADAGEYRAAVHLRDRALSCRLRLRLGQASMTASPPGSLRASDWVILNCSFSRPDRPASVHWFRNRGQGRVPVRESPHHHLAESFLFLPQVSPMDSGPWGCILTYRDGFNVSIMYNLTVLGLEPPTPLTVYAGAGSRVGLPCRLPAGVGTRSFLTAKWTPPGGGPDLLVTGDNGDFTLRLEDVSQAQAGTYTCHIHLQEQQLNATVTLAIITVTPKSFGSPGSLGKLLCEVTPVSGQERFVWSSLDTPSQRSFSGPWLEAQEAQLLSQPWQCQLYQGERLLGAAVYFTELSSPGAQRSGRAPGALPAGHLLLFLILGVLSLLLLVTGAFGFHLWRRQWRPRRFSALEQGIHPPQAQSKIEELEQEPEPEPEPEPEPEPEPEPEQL
Description: cell-based or functional assay.

Assay [2] deals with T1, LAG3 on cells (recombinant CHO cells …). Description: cell ELISA on recombinant CHO cells expressing Lag3. The method, then:
After washing (1×90 μl in PBST) cells were fixed by addition of 30 μl/well glutaraldehyde to a final concentration of 0.05% (Sigma Cat.No: G5882), 10 min at room temperature. After washing (3×90 μl/well with PBST-buffer) 25 μl/well goat anti-Human Ig κ chain antibody-HRP conjugate (Milipore, AP502P) was added in a 1:1000 dilution and incubated at RT for 1 h. After washing (3×90 μl/well with PBST-buffer) 25 μl/well TMB substrate (Roche, 11835033001) was added and incubated for 6-10 min. Measurement took place on a Tecan Safire 2 instrument at 370/492 nm.
(In general: An ELISA detects its analyte on a solid surface through an enzyme-linked reagent.)

The target in assay [3] is T2, cynomolgus LAG3 on cells (cynomolgus).
T2 construct: whole, on cells; also called cyno-LAG-3; cynoLAG3
Description: flow cytometry on HEK293F cells transfected with cyno-LAG-3, antibody 10 µg/ml. On the procedure:
1.5×10⁵ cells/well were seeded into 96-well plates. […] HEK cells were incubated with indicated antibodies for 45 min on ice, washed twice with 200 μl ice-cold PBS buffer containing 2% FBS, before secondary antibody (APC-labelled goat anti-human IgG-kappa, Invitrogen, cat.no. #MH10515) was added (1:50 diluted in FACS-Puffer/well) and further incubated for 30 min on ice. Cells were again washed twice with 200 μl ice-cold PBS/2% FBS buffer before samples were finally resuspended in 150 μl FACS buffer and binding was measured on FACS CANTO-II HTS Module.
(In flow cytometry, cells or beads pass a laser one at a time.)

Assay [4] addresses T2, cynomolgus LAG3 on cells. Description: flow cytometry on activated cynomolgus PBMC, 10 µg/ml (only 2nd Ab (rb): 5.26). On the procedure: Thus, cynomolgus peripheral blood mononuclear cells (PBMC) were prepared from fresh cynomolgus blood and were then activated by CD3/CD28 pre-treatment (1 μg/ml) for 2-3 days. […] After staining, cells were washed two times with PBS/2% FCS and analyzed on a FACS Fortessa (BD).

For assay [5], the target named is T3, biotinylated-Lag3 (UniProt P18627 23-450, limits assumed, biotinylated).
T3 construct: Probably a human LAG3 ECD construct; also called Lag3 (MHCII/ELISA)
T3 sequence (looked up): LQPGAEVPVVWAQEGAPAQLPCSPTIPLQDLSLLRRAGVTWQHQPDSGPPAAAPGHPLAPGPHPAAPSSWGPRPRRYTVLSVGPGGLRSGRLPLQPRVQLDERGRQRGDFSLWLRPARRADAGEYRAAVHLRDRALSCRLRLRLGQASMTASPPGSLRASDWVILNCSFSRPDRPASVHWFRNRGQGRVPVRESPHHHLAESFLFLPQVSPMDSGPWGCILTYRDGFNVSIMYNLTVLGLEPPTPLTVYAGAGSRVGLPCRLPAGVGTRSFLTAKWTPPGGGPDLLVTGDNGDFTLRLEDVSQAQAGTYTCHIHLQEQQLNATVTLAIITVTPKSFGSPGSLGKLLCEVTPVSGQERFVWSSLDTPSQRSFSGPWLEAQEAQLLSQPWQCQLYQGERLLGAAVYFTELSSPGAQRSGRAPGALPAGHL
Description: ELISA, inhibition of biotinylated-Lag3 binding to MHC-II on A375 cells (competitor MHC-II). The method, then:
25 μl/well of A375 cells (10000 cells/well) were seeded into tissue culture treated 384-well plates (Corning, 3701) and incubated at 37° C. overnight. […] After washing (1×90 μl in PBST) cells were fixed by addition of 30 μl/well glutaraldehyde to a final concentration of 0.05% (Sigma Cat.No: G5882), 10 min at room temperature. After washing (3×90 μl/well with PBST-buffer) 25 μl/well Poly-HRP40-Streptavidin (Fitzgerald, 65R-S104PHRPx) was added in a 1:2000 or 1:8000 dilution and incubated at RT for 1 h. After washing (3×90 μl/well with PBST-buffer) 25 μl/well TMB substrate (Roche, #11835033001) was added and incubated for 2 to 10 min. Measurement took place on a Tecan Safire 2 instrument at 370/492 nm.

For assay [6], the target named is T4, human Fc tagged human Lag3 extra cellular domain (human, UniProt P18627 29-450, biotinylated in the epitope binning, the SA CAP SPR and the FACS competition assay).
T4 construct: In-house fusion; also called huLag3-Fc; biotinylated, huFc-tagged huLag3; not shown: human Fc tag
T4 sequence: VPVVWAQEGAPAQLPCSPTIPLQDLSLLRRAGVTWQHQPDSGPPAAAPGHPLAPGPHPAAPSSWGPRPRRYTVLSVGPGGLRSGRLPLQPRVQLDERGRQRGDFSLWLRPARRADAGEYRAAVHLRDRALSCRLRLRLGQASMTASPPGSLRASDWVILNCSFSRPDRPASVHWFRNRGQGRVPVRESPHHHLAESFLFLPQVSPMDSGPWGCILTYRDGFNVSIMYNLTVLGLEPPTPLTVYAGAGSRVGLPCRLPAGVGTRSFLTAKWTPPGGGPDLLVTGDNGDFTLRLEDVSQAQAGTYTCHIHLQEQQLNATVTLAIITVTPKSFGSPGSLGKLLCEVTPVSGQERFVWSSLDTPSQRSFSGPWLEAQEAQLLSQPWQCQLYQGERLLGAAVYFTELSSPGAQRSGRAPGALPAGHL
Description: FACS, inhibition of biotinylated Lag3:Fc binding to MHC-II on A375 cells (competitor MHC-II); antibody 10 µg/ml. On the procedure:
This analysis was studied in a FACS competition experiment: A375 cells (ATCC, #CRL-1619) were cultured for 2-3 passages in EM Eagle's medium supplemented with EBSS (PAN, cat.no. #P04-00509), 10% FBS, 2 mM L-Glutamin, 1×NEAA and 1× Sodium Pyruvate. All antibodies, were diluted in FACS buffer to a final concentration of 20 μg/ml in 25 μl (in 96well U-bottom plates). […] A375 cells were washed with PBS and adjusted to 3×10⁶ cells/ml in PBS. 100 μl were seeded per well in a 96well V-bottom plate. Plates were centrifuged and supernatant was removed. […] After this, cells were washed with 200 μl FACS buffer. […] After staining, cells were again washed and then transferred in 150 μl FACS buffer (PBS/2% FBS) to a U-bottom plate and analyzed on a FACS Canto-II using an HTS module.
All antibodies were used at 10 μg/ml final concentration.

B1: aLAG3(0414) (antibody, V domains shown)
VH: EVQLLESGGGLVQPGGSLRLSCAASGFIFDDYTMNWVRQAPGKGLEWVAVISWDGGGTYYTDSVKGRFTISRDDFKNTLYLQMNSLRAEDTAVYYCAKGLTDTTLYGSDYWGQGTLVTVSS
VL: DIQMTQSPSSLSASVGDRVTITCRASQSISSYLNWYQQKPGKAPKLLIYAASTLQSGVPSRFSGSGSGTDFTLTISSLQPEDFATYYCQQTYSSPLTFGGGTKVEIKG
As to B1, in assay [1], the “EC50 [nM] in Jurkat LAG3 + SED + Raji (NFAT luciferase), 1st assay” value (from here on “EC50 [nM] … 1st assay”) was found to be 1.1 nM; the “EC50 [nM] in Jurkat LAG3 + SED + Raji (NFAT luciferase), 2nd assay” value (from here on “EC50 [nM] … 2nd assay”) was found to be 1 nM; the “EC50 [nM] in Jurkat LAG3 + SED + Raji (NFAT luciferase), 3rd assay” value was 1.8 nM. In assay [2], the “CHO-cell ELISA inflexion point” value worked out at 48.1 ng/mL. In assay [3], the “% pos.” value amounted to 81.6% and the GeoMean turned out to be 9170. The “% positive cyno cells (PBLs) after CD3/CD28 activation” value (“% positive cyno cells (PBLs)” below) in assay [4] is 43%. Also, in assay [5], the half-maximal inhibitory concentration (IC50) came out at 0.9 nM. In addition, the “% Inhibition” value in assay [6] worked out at 67.3%.

B2: aLAG3(0411) (antibody, V domains shown)
VH: B1 VH with Q3H, F29V, A49S, G57A, T61A, T103D
VL: DIQMTQSPSSLSASVGDRVTITCRASQSIVSYLNWYQQKPGKAPKLLIYASSSLQSGVPSRFSGSGSGTDFTLTISSLQPEDFATYYCQQTYSTPLTFGGGTKVEIK
notes: also called aLAG3 (411)
Regarding B2, in assay [1], the “EC50 [nM] … 1st assay” value was determined as 1.1 nM and the “EC50 [nM] … 2nd assay” value came to 1 nM. For the same molecule, the “CHO-cell ELISA inflexion point” value in assay [2] stood at 41.3 ng/mL. Further, in assay [3], the “% pos.” value was 88.6% and the GeoMean was found to be 11000. The “% positive cyno cells (PBLs)” value in assay [4] was found to be 46.6%. In addition, in assay [5], the 50% inhibitory concentration (IC50) came out at 0.8 nM. For the same molecule, in assay [6], the “% Inhibition” value was 45.6%.

B3: aLAG3(0416) (antibody, V domains shown)
VH: EVQLVESGGGLVQPGGSLRLACAASGFTFSDYAMSWVRQAPGKGLEWVSGIDNSGYYTYYTDSVKGRFTISRDDVKNTLYLQMNSLRAEDTAVYLCTKTHSGLIVNDAFDIWGQGTMVTVSS
VL: B1 VL with M4L, A50D, T53S, Q55E, F71A, T91S, S94T
For the molecule B3, in assay [1], the “EC50 [nM] … 1st assay” value was 3.1 nM; the “EC50 [nM] … 2nd assay” value amounted to 2.5 nM; the “EC50 [nM] in Jurkat LAG3 + SED + Raji (NFAT luciferase), 3rd assay” value is 3.5 nM. Further, the “CHO-cell ELISA inflexion point” value in assay [2] was determined as 37.2 ng/mL. Further, in assay [3], the “% pos.” value is 67.9% and the GeoMean is 4220. Further, the “% positive cyno cells (PBLs)” value in assay [4] was found to be 38.9%. Moreover, the IC50 in assay [5] amounted to 0.9 nM. Also, the “% Inhibition” value in assay [6] came out at 68.6%.

B4: aLAG3(0417) (antibody, V domains shown)
VH: B3 VH
VL: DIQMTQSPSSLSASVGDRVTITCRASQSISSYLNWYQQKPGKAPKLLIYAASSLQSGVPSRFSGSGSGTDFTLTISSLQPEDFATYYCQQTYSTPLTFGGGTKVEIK
notes: also called aLAG3 (417)
As for B4, the “EC50 [nM] … 1st assay” value in assay [1] turned out to be 1 nM. The “CHO-cell ELISA inflexion point” value in assay [2] was 27.8 ng/mL. Besides, in assay [3], the “% pos.” value was 75.9% and the GeoMean came out at 7120. Also, in assay [4], the “% positive cyno cells (PBLs)” value came to 35.3%. Also, the IC50 in assay [5] worked out at 0.9 nM. Besides, the “% Inhibition” value in assay [6] was found to be 59.1%.

B5: aLAG3(0403) (antibody, V domains shown)
VH: EVQLLESGGGLVQPGGSLRLSCAASGFTFDDYTMHWVRQAPGKGLEWVSLVSWDGGGTYYTNSVKGRFTISRDNSKNTLYLQMNSLRAEDTAVYFCAKAITDTSLYGYDYWGQGILVTVSS
VL: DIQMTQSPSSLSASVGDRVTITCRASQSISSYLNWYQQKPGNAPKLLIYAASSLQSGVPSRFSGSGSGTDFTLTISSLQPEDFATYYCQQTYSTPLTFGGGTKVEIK
Regarding B5, in assay [2], the “CHO-cell ELISA inflexion point” value was 30.9 ng/mL. In assay [3], the “% pos.” value stood at 82% and the GeoMean was 7460. For the same molecule, the “% positive cyno cells (PBLs)” value in assay [4] worked out at 44.2%. In assay [5], this molecule registered a 50% inhibitory concentration (IC50) of 0.9 nM. Also, the “% Inhibition” value in assay [6] was 34.9%.
